Tested on: MS2 coat protein
Test: apparent KD of MS2 coat protein; designed switch direction (-1 OFF switch, 1 ON switch): 1; higher = weaker reporter binding
In short: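 On Illumina chips, designed RNA switches with common flanks were made by stalled E. coli RNA polymerase. Titrations with SNAP-549-labelled MS2 coat protein, doubling from 0.7 or 1.5 nM to 3 µM, were done with no input, with 200 uM small-molecule ligand, or with an oligonucleotide input. Apparent KD is the median per design over clusters, from curve fits of normalised cluster fluorescence.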

[1] = input ligand: microRNA oligo, concentration not stated
[2] = Eterna round: R95, input ligand: FMN 200 uM
[3] = Eterna round: R95, input ligand: microRNA oligo, concentration not stated
[4] = Eterna round: R95, input ligand: none

| Sequence | apparent KD of MS2 coat protein (input ligand: FMN 200 uM) | apparent KD of MS2 coat protein [1] | apparent KD of MS2 coat protein (input ligand: none) | apparent KD of MS2 coat protein [2] | apparent KD of MS2 coat protein [3] | apparent KD of MS2 coat protein [4] |
| --- | --- | --- | --- | --- | --- | --- |
| AUUAUUAAUGCAGGAUAUGAUUAACAUGAGGAUCACCCAUGUGGUGUUGUGAGUAAGGAGAGUGAUCAGAAGGGCAUUUUUUAU [JMF's solution 15] (Eterna round: R96, puzzle: Same State NG 2) | 0.959 µM | 0.387 µM | 1.19 µM |  |  |  |
| AUUAUUUAUGCAGGAUAUGAUUAACAUGAGGAUCACCCAUGUGGUGUUGUGAGUAAGGAGAGUGAUCAGAAGGGCAGUUUUUUU [JMF's solution 43] (Eterna round: R96, puzzle: Same State NG 2) | 0.568 µM | 0.231 µM | 0.406 µM |  |  |  |
| AUUAUUUAUGCAGGAUAUGAUUAACAUGAGGAUCACCCAUGUGGUGUUGUGAGUAAGGAGAGUGAUCAGAAGGGCAUCUUUUUU [JMF's solution 44] (Eterna round: R96, puzzle: Same State NG 2) | 0.61 µM | 0.227 µM | 0.414 µM |  |  |  |
| AUUCGUUUGAUAGGAUAUCACUUUACAUGAGGAUCACCCAUGUUCACCACGCUGGUCUCUUAUACUGAGAAGGAUCUUGAUGAC [JR_SSNG2_Sub009] (Eterna round: R96, puzzle: Same State NG 2) | 0.0229 µM | 0.0188 µM | 0.028 µM |  |  |  |
| AUUGCUAUCACAGGAUAUCAUGCGAAAAUUGCGUGAGAAGGGUGGACUCUGUCAUUCACGGAGGACAUGAGGAUCACCCAUGUC [SameState NG1 #81] (Eterna round: R96, puzzle: Same State NG 1) | 1.02 µM | 0.0155 µM | 0.0323 µM |  |  |  |
| AUUGCUUUCGCAGGAUAUGAUGCGAAAAUUGCGUCAGAAGGGUGGAGUCUCUCAUUGCAAGAGGACAUGAGGAUCACCCAUGUC [SameState NG1 #86] (Eterna round: R96, puzzle: Same State NG 1) | 0.177 µM | 0.245 µM | 0.322 µM |  |  |  |
| AUUUAACAAGCUUUUUGCUCGUCUUAUAAACAUGAGGAUCACCCAUGUAAUAGCGUGAGAGUAAUUAAUUAAAUAAU [JMF 90] (puzzle: Sensor for hsa-mir-208a) |  |  |  | 0.0146 µM | 0.0469 µM | 0.0133 µM |
| AUUUAACAAGCUUUUUGCUCGUCUUAUAAACAUGAGGAUCACCCAUGUAAUAGCGUGAGAGUAAUUUAAUAAAUAAU [JMF 84] (puzzle: Sensor for hsa-mir-208a) |  |  |  | 0.0137 µM | 0.0511 µM | 0.0134 µM |
| AUUUAACAAGCUUUUUGCUCGUCUUAUAAACAUGAGGAUCACCCAUGUAAUAGCGUGAGAGUAAUUUAUUAAAUAAU [JMF 92] (puzzle: Sensor for hsa-mir-208a) |  |  |  | 0.0156 µM | 0.041 µM | 0.0156 µM |
| AUUUAACAUGAGGAUCACCCAUGUCAACAAAGUCGAGGAUAUGGGCAAAUAAAAUAAGAACCAGAAGGCGAAUAAU [salish99_ss1_r3_070] (puzzle: Same State 1) |  |  |  | 0.0405 µM | 0.283 µM | 0.368 µM |
| AUUUGGUAACGAGGAUAUCGUUUUUGUUUUCUUCGAGAAGGCGUUAUUGUUUAUUUCUAUUGUUACAUGAGGAUCACCCAUGUU [JR_SSNG1_Sub056] (Eterna round: R96, puzzle: Same State NG 1) | 0.0154 µM | 0.019 µM | 0.0217 µM |  |  |  |
| AUUUUAAAACAUGAGGAUCACCCAUGUUACAAGCUUUUUUUUUUUUUUUUUUUUUGGUGAUCCUCAGCUCGUCUUAU [lrlee 1] (puzzle: Sensor for hsa-mir-208a version 2) |  |  |  | 0.00151 µM | 0.00516 µM | 0.000902 µM |
| AUUUUGAAUGCAGGAUAUGAUUAACAUGAGGAUCACCCAUGUGGUGUUGUGAGUAAGGAGAGUGAUCAGAAGGGCAUUUUUUUU [JMF's solution 96] (Eterna round: R96, puzzle: Same State NG 2) | 0.599 µM | 0.452 µM | 0.445 µM |  |  |  |
| AUUUUUAAUGCAGGAUAUGAUUAACAUGAGGAUCACCCAUGUGGUGUUGUGAGUAAGGAGAGUGAUCAGAAGGGCAAUUUUUUU [JMF's solution 78] (Eterna round: R96, puzzle: Same State NG 2) | 0.731 µM | 0.226 µM | 0.433 µM |  |  |  |
| AUUUUUAAUGCAGGAUAUGAUUAACAUGAGGAUCACCCAUGUGGUGUUGUGAGUAAGGAGAGUGAUCAGAAGGGCAUCUUUUCA [SS-NG2-LRO02] (Eterna round: R96, puzzle: Same State NG 2) | 0.679 µM | 0.216 µM | 0.372 µM |  |  |  |
| AUUUUUAAUGCAGGAUAUGAUUAACAUGAGGAUCACCCAUGUGGUGUUGUGAGUAAGGAGAGUGAUCAGAAGGGCAUUUUUAUU [JMF's solution 84] (Eterna round: R96, puzzle: Same State NG 2) | 1.18 µM | 0.45 µM | 0.615 µM |  |  |  |

| Sequence | apparent KD of MS2 coat protein (input ligand: FMN 200 uM) | apparent KD of MS2 coat protein [1] | apparent KD of MS2 coat protein (input ligand: none) | apparent KD of MS2 coat protein [2] | apparent KD of MS2 coat protein [3] | apparent KD of MS2 coat protein [4] |
| --- | --- | --- | --- | --- | --- | --- |
| AUUUUUAAUGCAGGAUAUGAUUAACAUGAGGAUCACCCAUGUGGUGUUGUGAGUAAGGAGAGUGAUCAGAAGGGCAUUUUUUUC [JMF's solution 91] (Eterna round: R96, puzzle: Same State NG 2) | 0.888 µM | 0.274 µM | 0.502 µM |  |  |  |
| CAAAAUUAGUAGGAUAGGUACCCAGGAUGACAUGAGGAUCACCCAUGUAAGAGCUUUUUGCUCGUCAUUAACAGUUG [JR_SHM208a_Sub016] (puzzle: Sensor for hsa-mir-208a) |  |  |  | 0.0557 µM | 0.0557 µM | 0.068 µM |
| CAAGGACGGACACAGGAUAUCCUCACCUACACAUGAGGAUCACCCAUGUCAUAAAAGAUGGUGCAGGAGAAGGGUGCGGCGUCUA [Bibesoxe] (puzzle: Same State 2) |  |  |  | 0.0107 µM | 0.00962 µM | 0.00999 µM |
| CAAGUACAUGAGGAUCACCCAUGUGGAAGAGAUGCAGGAUAUGUGGAGGAAGGGAGUGUAACAGAAGGGCAAGGAG [JR_SS!_Sub020] (puzzle: Same State 1) |  |  |  | 0.0399 µM | 0.0456 µM | 0.0508 µM |
| CAAUAAAACACAGGAUAUACAGCCAGCCAGGCUGUAGAAGGGUGAGACAUGAGGAUCACCCAUGUACAAGUCGUAGGACUUGGG [Edlaticeen] (Eterna round: R96, puzzle: Same State NG 1) | 1.03 µM | 0.0477 µM | 0.163 µM |  |  |  |
| CACAAUCUAUCUGAGGAUAUCAUGAAAAAAACAUGAGGAUCACCCAUGUGCAGGAAAACUGCAUAUGAGAAGGCAGAUAGAUUGA [salish99_SS2_r3_016] (puzzle: Same State 2) |  |  |  | 0.038 µM | 1.26 µM | 0.678 µM |
| CACAAUCUAUCUGAGGAUAUCAUGAAAAAAACAUGAGGAUCACCCAUGUGCAGGAAAACUGCAUAUGAGAAGGCAGAUAGAUUGC [salish99_SS2_r3_013] (Eterna round: R96, puzzle: Same State 2) |  | 0.452 µM |  |  |  |  |
| CACAAUCUAUCUGAGGAUAUCAUGAAAAAAACAUGAGGAUCACCCAUGUGCAGGAAAACUGCAUAUGAGAAGGCAGAUAGAUUGC [salish99_SS2_r3_013] (puzzle: Same State 2) |  |  |  | 0.0279 µM | 0.46 µM | 0.943 µM |
| CACAUGAGGAUCACCCAUGUCAGACAAAGGAGCAUGACGCUACAGGAUAUGUGAGCGACUAACGAAUAGAAGGGUAGCCAUCAC [Eternabot solution 27] (Eterna round: R96, puzzle: Same State NG 3) | 0.0275 µM | 0.0208 µM | 0.0293 µM |  |  |  |
| CAGCACUAUCGAGAGGAUAUGCGGUGAUGGACAUGAGGAUCACCCAUGUUAGCGAUAGCAUCACGGCAGAAGGCUCUGCUGCUGC [Soteed Omei mod 37] (puzzle: Same State 2) |  |  |  | 0.0106 µM | 0.0176 µM | 0.0241 µM |
| CAGCACUGUCGAGAGGAUAUGCGGUGGUAGACAUGAGGAUCACCCAUGUUAGCGACAGCAUCACGGCAGAAGGCUCUGCUGCUGC [Soteed Omei mod 41] (puzzle: Same State 2) |  |  |  | 0.0373 µM | 0.0963 µM | 0.146 µM |
| CAGCGCUGUCGAGAGGAUAUGCGGUGAUGGACAUGAGGAUCACCCAUGUAAGCGAUAGCAUUACGGCAGAAGGCUCUGCAGCUGC [Riaranzaes] (Eterna round: R96, puzzle: Same State 2) |  | 0.0172 µM |  |  |  |  |
| CAGCGCUGUCGAGAGGAUAUGCGGUGAUGGACAUGAGGAUCACCCAUGUUAGCGACAGCAUCACGGCAGAAGGCUCUACCGCUGG [Soteed Omei mod 42] (puzzle: Same State 2) |  |  |  | 0.0126 µM | 0.00978 µM | 0.00961 µM |
| CAGCGCUGUCGAGAGGAUAUGCGGUGAUGGACAUGAGGAUCACCCAUGUUAGCGAUAGCAUUACGGUAGAAGGCUCUACAGCUGC [Soteed no mod] (puzzle: Same State 2) |  |  |  | 0.015 µM | 0.0255 µM | 0.0302 µM |
| CAGCGCUGUCGAGAGGAUAUGCGGUGAUGGACAUGAGGAUCACCCAUGUUAGCGAUAGCAUUACGGUAGAAGGCUCUACAGCUGC [Soteed] (Eterna round: R96, puzzle: Same State 2) | 0.0187 µM | 0.0321 µM | 0.0474 µM |  |  |  |
| CAGCGCUGUCGAGAGGAUAUGCGGUGGUGGACAUGAGGAUCACCCAUGUUAGCGAUAGCAUUACGGUAGAAGGCUCUACAGCUGC [Soteed - 2] (puzzle: Same State 2) |  |  |  | 0.0309 µM | 0.0224 µM | 0.033 µM |

— the supplement of paper PMC9170038
